Measurements as given in patent publication US20090074795A1, “Methods for addressing ocular diseases through interference with the wnt signaling pathway” (priority 2007, published 2009).

Test system: OIR rats
Test: Retinal VEGF (western blot) after intravitreal DKK1 in OIR rats
Format: in vivo, rat
Details: 3 μg/eye intravitreal at P15, retinas at P18, western blot, vs BSA
Protocol: To determine the effect of the wnt pathway blockade of the VEGF expression induced by ischemia, DKK1 was injected into the vitreous of the OIR rats at P15. The rats were then maintained in normoxia for 3 days, and the VEGF expression in the retina was measured.
The same amount of BSA was injected as control. The same amount of total protein from each rat was used for western blot analysis using specific antibody for VEGF. Each lane represents an individual rat.
Intravitreal injection: All solutions will be sterilized by filtration and assessed for endotoxin. Animals will be anesthetized, and compounds will be injected into the vitreous of the one eye through the pars plana using a Hamilton syringe. The left eye will receive the same volume of vehicle and will be used as the control. Following injection, the animals will receive equal amounts of topical antibiotic ointment on both eyes. The animals will then be kept in normoxic conditions until the necessary time point for evaluation

B1: DKK1: Purified Dickkopf-1 protein (R&D System), specific inhibitor of the wnt pathway binding LRP5/6; mouse protein in mice, human in HUVEC (protein, UniProt O54908 32-272; O54908 32-272, looked up)
Dickkopf-related protein 1 1: TLNSVLINSNAIKNLPPPLGGAGGQPGSAVSVAPGVLYEGGNKYQTLDNYQPYPCAEDEECGSDEYCSSPSRGAAGVGGVQICLACRKRRKRCMRHAMCCPGNYCKNGICMPSDHSHFPRGEIEESIIENLGNDHNAAAGDGYPRRTTLTSKIYHTKGQEGSVCLRSSDCAAGLCCARHFWSKICKPVLKEGQVCTKHKRKGSHGLEIFQRCYCGEGLACRIQKDHHQASNSSRLHTCQRH
Dickkopf-related protein 1 2: B1 Dickkopf-related protein 1 1
modifications: mouse protein in mice, human in HUVEC
VEGF over-expression in the retina: significantly blocked VEGF over-expression
